The target of the experiment is Cpn60 (chloroplast chaperonin) of pea stroma (P. sativum (endogenous in pea chloroplasts)). The experiment in a line: native gel or EMSA. Background: Mobility shift assays separate free from complexed probe on a gel.

Regarding “Plsp1 Δβ1-2 imported into isolated chloroplasts (from UniProt Q8H0W1 68-291) (domain or fragment)”, the reduction of the 700-kDa band against full-length Plsp1 worked out at 80%.

The values are drawn from article doi:10.1101/2020.04.20.051433.
